# Assay results reported in patent US20200024330A1.
# Assays:
# Assay in all cases: cell-based or functional assay
# [1] = target: HIV-1 Env of isolate MGRM-AG-009 (HIV-1)
# [2] = target: HIV-1 MGRM-F1-016 Env (pseudovirus) (HIV-1)
# [3] = target: HIV-1 Env of isolate MGRM-AG-012 (HIV-1)
# [4] = target: HIV-1 92BR020 envelope glycoprotein (Env) on pseudovirus (HIV-1)
# [5] = target: aMLV envelope (negative control pseudovirus)
# [6] = target: HIV-1 Env of isolate MGRM-AG-006 (HIV-1)
# [7] = target: HIV-1 Env of isolate MGRM-Chronic-B-024 (HIV-1)
# [8] = target: HIV-1 Env of isolate MGRM-Chronic-B-017 (HIV-1)
# [9] = target: HIV-1 Env of isolate MGRM-AG-001 (HIV-1)
# [10] = target: HIV-1 Env of isolate MGRM-AG-002 (HIV-1)
# [11] = target: HIV-1 Env of isolate MGRM-AE-008 (HIV-1)
# [12] = target: HIV-1 Env of isolate MGRM-AG-003 (HIV-1)
# [13] = target: HIV-1 92RW020 envelope glycoprotein (Env) on pseudovirus (HIV-1)
# [14] = target: HIV-1 92TH021 envelope glycoprotein (Env) on pseudovirus (HIV-1)
# [15] = target: HIV-1 NL43 envelope glycoprotein (Env) on pseudovirus (HIV-1)
# [16] = target: HIV-1 Env of isolate MGRM-AE-004 (HIV-1)
# [17] = target: HIV-1 MGRM-A-007 envelope glycoprotein (Env) (HIV-1)
# [18] = target: HIV-1 Env of isolate MGRM-Chronic-B-020 (HIV-1)
# [19] = target: HIV-1 Env of isolate MGRM-AE-005 (HIV-1)
# [20] = target: HIV-1 Env of isolate MGRM-AE-006 (HIV-1)
# [21] = target: HIV-1 Env of isolate MGRM-G-006 (HIV-1)
# [22] = target: HIV-1 Env of isolate MGRM-Chronic-B-018 (HIV-1)
# [23] = target: HIV-1 Env of isolate MGRM-AE-007 (HIV-1)
# [24] = target: HIV-1 Env of isolate MGRM-Chronic-B-023 (HIV-1)
# [25] = target: HIV-1 Env of isolate MGRM-G-004 (HIV-1)
# [26] = target: HIV-1 92UG024 envelope glycoprotein (Env) on pseudovirus (HIV-1)
# [27] = target: HIV-1 Env of isolate MGRM-AG-005 (HIV-1)
# [28] = target: HIV-1 Env of isolate MGRM-Chronic-B-011 (HIV-1)
# [29] = target: HIV-1 Env of isolate MGRM-AG-008 (HIV-1)
# [30] = target: HIV-1 Env of isolate MGRM-G-009 (HIV-1)
# [31] = target: HIV-1 Env of isolate MGRM-AG-013 (HIV-1)
# [32] = target: HIV-1 Env of isolate MGRM-G-001 (HIV-1)
# [33] = target: HIV-1 Env of isolate MGRM-Chronic-B-010 (HIV-1)
# [34] = target: HIV-1 Env of isolate MGRM-Chronic-B-012 (HIV-1)
# [35] = target: HIV-1 Env of isolate MGRM-AG-011 (HIV-1)
# [36] = target: HIV-1 Env of isolate MGRM-G-028 (clade G pseudovirus) (HIV-1)
# [37] = target: HIV-1 Env of isolate JRFL (HIV-1)
Substance,"IC50 (µg/ml), pseudovirus neutralization [1] [µg/mL]","IC50 (µg/ml), pseudovirus neutralization [2] [µg/mL]","IC50 (µg/ml), pseudovirus neutralization [3] [µg/mL]",IC90 (pseudovirus neutralization) [4] [µg/mL],"IC50 (µg/ml), pseudovirus neutralization [5] [µg/mL]","IC50 (µg/ml), pseudovirus neutralization [6] [µg/mL]","IC50 (µg/ml), pseudovirus neutralization [7] [µg/mL]","IC50 (µg/ml), pseudovirus neutralization [8] [µg/mL]","IC50 (µg/ml), pseudovirus neutralization [9] [µg/mL]","IC50 (µg/ml), pseudovirus neutralization [10] [µg/mL]","IC50 (µg/ml), pseudovirus neutralization [11] [µg/mL]","IC50 (µg/ml), pseudovirus neutralization [12] [µg/mL]",IC90 (pseudovirus neutralization) [13] [µg/mL],IC90 (pseudovirus neutralization) [14] [µg/mL],IC90 (pseudovirus neutralization) [15] [µg/mL],"IC50 (µg/ml), pseudovirus neutralization [16] [µg/mL]","IC50 (µg/ml), pseudovirus neutralization [17] [µg/mL]","IC50 (µg/ml), pseudovirus neutralization [18] [µg/mL]","IC50 (µg/ml), pseudovirus neutralization [19] [µg/mL]","IC50 (µg/ml), pseudovirus neutralization [20] [µg/mL]",further results
2G12 (antibody),> 50,> 50,1.94,24.1,> 50,3.92,> 50,> 50,0.69,0.54,> 50,> 50,6.23,> 50,15.8,> 50,> 50,0.2,> 50,> 50,"IC50 (µg/ml), pseudovirus neutralization [21]: > 50 µg/mL; IC50 (µg/ml), pseudovirus neutralization [22]: > 50 µg/mL; IC50 (µg/ml), pseudovirus neutralization [23]: > 50 µg/mL; IC50 (µg/ml), pseudovirus neutralization [24]: 0.16 µg/mL; IC50 (µg/ml), pseudovirus neutralization [25]: > 50 µg/mL; IC90 (pseudovirus neutralization) [26]: 7.57 µg/mL; IC50 (µg/ml), pseudovirus neutralization [27]: > 50 µg/mL; IC50 (µg/ml), pseudovirus neutralization [28]: > 50 µg/mL; IC50 (µg/ml), pseudovirus neutralization [29]: > 50 µg/mL; IC50 (µg/ml), pseudovirus neutralization [30]: > 50 µg/mL; IC50 (µg/ml), pseudovirus neutralization [31]: 0.95 µg/mL; IC50 (µg/ml), pseudovirus neutralization [32]: > 50 µg/mL; IC50 (µg/ml), pseudovirus neutralization [33]: 1.5 µg/mL; IC50 (µg/ml), pseudovirus neutralization [34]: 0.22 µg/mL; IC50 (µg/ml), pseudovirus neutralization [35]: > 50 µg/mL; IC50 (µg/ml), pseudovirus neutralization [36]: 28.2 µg/mL; IC50 (µg/ml), pseudovirus neutralization [37]: 1.45 µg/mL"
4E10 (antibody),31.4,7.61,0.86,> 50,> 50,1.76,9.19,2.77,1.12,0.8,0.94,0.64,36.1,23.5,29.6,1.27,1.82,2.45,0.47,0.23,"IC50 (µg/ml), pseudovirus neutralization [21]: 1.23 µg/mL; IC50 (µg/ml), pseudovirus neutralization [22]: 23.2 µg/mL; IC50 (µg/ml), pseudovirus neutralization [23]: 0.45 µg/mL; IC50 (µg/ml), pseudovirus neutralization [24]: 27.9 µg/mL; IC50 (µg/ml), pseudovirus neutralization [25]: 1.47 µg/mL; IC90 (pseudovirus neutralization) [26]: 23.7 µg/mL; IC50 (µg/ml), pseudovirus neutralization [27]: 2.13 µg/mL; IC50 (µg/ml), pseudovirus neutralization [28]: 1.07 µg/mL; IC50 (µg/ml), pseudovirus neutralization [29]: 1.48 µg/mL; IC50 (µg/ml), pseudovirus neutralization [30]: 1.34 µg/mL; IC50 (µg/ml), pseudovirus neutralization [31]: 2.61 µg/mL; IC50 (µg/ml), pseudovirus neutralization [32]: 2.04 µg/mL; IC50 (µg/ml), pseudovirus neutralization [33]: 1.69 µg/mL; IC50 (µg/ml), pseudovirus neutralization [34]: 48 µg/mL; IC50 (µg/ml), pseudovirus neutralization [35]: 1.36 µg/mL; IC50 (µg/ml), pseudovirus neutralization [36]: 6.32 µg/mL; IC50 (µg/ml), pseudovirus neutralization [37]: 18.9 µg/mL"
